Test system: Escherichia coli TOP10
Experiment: shrunken log2 fold change of peptide-encoding DNA abundance (4.5 h post-induction vs induction); higher = less antimicrobial activity (less host growth inhibition)
Details: time post-induction: 4.5 h; library: site-saturation at positions 5, 18, 19, 20
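Further: peptides expressed intracellularly from a pBAD plasmid library in pooled LB shake-flask culture, induced with 0.3% L-arabinose, DNA abundance read by NGS, three biological replicates, DESeq2 with apeglm shrinkage.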

| Sequence | shrunken log2 fold change |
| --- | --- |
| RRIRARPPRLPRPRPRPNMLPRP | -0.424 |
| RRIRTRPPRLPRPRPRPRSWPRP | 0.532 |
| RRIRRRPPRLPRPRPRPKAPPRP | 0.0122 |
| RRIRERPPRLPRPRPRPSKGPRP | -0.35 |
| RRIRKRPPRLPRPRPRPPMMPRP | 0.587 |
| RRIRHRPPRLPRPRPRPGPNPRP | 0.813 |
| RRIRTRPPRLPRPRPRPNQRPRP | 0.181 |
| RRIRQRPPRLPRPRPRPQHKPRP | -0.205 |
| RRIRKRPPRLPRPRPRPKGVPRP | 0.286 |
| RRIRPRPPRLPRPRPRPMIYPRP | -0.113 |
| RRIRYRPPRLPRPRPRPFYPPRP | -0.747 |
| RRIRARPPRLPRPRPRPDQTPRP | -0.0212 |
| RRIRKRPPRLPRPRPRPCIAPRP | -0.0581 |
| RRIRNRPPRLPRPRPRPMTVPRP | -0.12 |
| RRIRHRPPRLPRPRPRPCDQPRP | -0.000946 |
| RRIRKRPPRLPRPRPRPCCFPRP | 0.112 |
| RRIRARPPRLPRPRPRPSWDPRP | 0.244 |
| RRIRQRPPRLPRPRPRPCMCPRP | -0.147 |
| RRIRPRPPRLPRPRPRPGDVPRP | 0.145 |
| RRIRDRPPRLPRPRPRPKPPPRP | 0.471 |
| RRIRLRPPRLPRPRPRPVNKPRP | -0.14 |
| RRIRVRPPRLPRPRPRPVDHPRP | -0.464 |

| Sequence | shrunken log2 fold change |
| --- | --- |
| RRIRNRPPRLPRPRPRPKQMPRP | 0.267 |
| RRIRNRPPRLPRPRPRPEPGPRP | 0.321 |
| RRIRQRPPRLPRPRPRPWYEPRP | 0.0185 |
| RRIRGRPPRLPRPRPRPGMDPRP | 1.06 |
| RRIRCRPPRLPRPRPRPHTIPRP | -0.38 |
| RRIRIRPPRLPRPRPRPPDFPRP | 0.189 |
| RRIRQRPPRLPRPRPRPATYPRP | -0.287 |
| RRIRPRPPRLPRPRPRPVNEPRP | -0.00503 |
| RRIRARPPRLPRPRPRPQSIPRP | -0.0868 |
| RRIRGRPPRLPRPRPRPVSYPRP | 0.291 |
| RRIRLRPPRLPRPRPRPCVGPRP | -0.0253 |
| RRIRHRPPRLPRPRPRPYNHPRP | -0.316 |
| RRIRHRPPRLPRPRPRPIYHPRP | -0.0782 |
| RRIRDRPPRLPRPRPRPMVMPRP | 0.133 |
| RRIRGRPPRLPRPRPRPGLFPRP | 1.01 |
| RRIRKRPPRLPRPRPRPPHAPRP | 0.728 |
| RRIRCRPPRLPRPRPRPWHEPRP | -0.0591 |
| RRIRWRPPRLPRPRPRPQLAPRP | 0.351 |
| RRIRARPPRLPRPRPRPGNYPRP | 0.208 |
| RRIRARPPRLPRPRPRPRYDPRP | 0.166 |
| RRIRTRPPRLPRPRPRPDCMPRP | -0.137 |
| RRIRERPPRLPRPRPRPGQAPRP | -0.00166 |

| Sequence | shrunken log2 fold change |
| --- | --- |
| RRIRERPPRLPRPRPRPNEKPRP | -0.0183 |
| RRIRYRPPRLPRPRPRPQNPPRP | -0.483 |
| RRIRRRPPRLPRPRPRPLTYPRP | -0.204 |
| RRIRLRPPRLPRPRPRPGCWPRP | 0.482 |
| RRIRYRPPRLPRPRPRPHWQPRP | -0.0696 |
| RRIRYRPPRLPRPRPRPLSWPRP | -0.0279 |
| RRIRFRPPRLPRPRPRPSQRPRP | 0.384 |
| RRIRWRPPRLPRPRPRPDLCPRP | 0.777 |
| RRIRFRPPRLPRPRPRPNEVPRP | -0.0205 |
| RRIRPRPPRLPRPRPRPKRCPRP | -0.0846 |
| RRIRPRPPRLPRPRPRPFCFPRP | 0.337 |
| RRIRHRPPRLPRPRPRPIVTPRP | -0.388 |
| RRIRERPPRLPRPRPRPECTPRP | 0.187 |
| RRIRWRPPRLPRPRPRPFRDPRP | -0.196 |
| RRIRWRPPRLPRPRPRPCVQPRP | 2.8 |
| RRIRIRPPRLPRPRPRPSGIPRP | -0.469 |
| RRIRPRPPRLPRPRPRPLEYPRP | -0.56 |
| RRIRRRPPRLPRPRPRPAHEPRP | 0.598 |
| RRIRVRPPRLPRPRPRPHAGPRP | 0.108 |
| RRIRTRPPRLPRPRPRPPPHPRP | 0.907 |
| RRIRERPPRLPRPRPRPEARPRP | 0.164 |
| RRIRDRPPRLPRPRPRPQYQPRP | -0.156 |

| Sequence | shrunken log2 fold change |
| --- | --- |
| RRIRTRPPRLPRPRPRPHFEPRP | -0.323 |
| RRIRYRPPRLPRPRPRPWYWPRP | -0.0383 |
| RRIRCRPPRLPRPRPRPPCCPRP | 0.021 |
| RRIRRRPPRLPRPRPRPPKRPRP | 0.686 |
| RRIRERPPRLPRPRPRPTNHPRP | -0.472 |
| RRIRNRPPRLPRPRPRPGGHPRP | -0.102 |
| RRIRHRPPRLPRPRPRPHTQPRP | 0.0972 |
| RRIRMRPPRLPRPRPRPISKPRP | 0.316 |
| RRIRARPPRLPRPRPRPCNFPRP | -0.478 |
| RRIRERPPRLPRPRPRPQRSPRP | -0.106 |
| RRIRARPPRLPRPRPRPFIEPRP | 0.0738 |
| RRIRKRPPRLPRPRPRPMETPRP | -0.0146 |
| RRIRYRPPRLPRPRPRPHILPRP | -0.288 |
| RRIRMRPPRLPRPRPRPPKFPRP | 0.166 |
| RRIRSRPPRLPRPRPRPYSQPRP | -0.0604 |
| RRIRFRPPRLPRPRPRPKGPPRP | 0.0269 |
| RRIRMRPPRLPRPRPRPLTPPRP | 1.13 |
| RRIRTRPPRLPRPRPRPAWTPRP | 0.101 |
| RRIRERPPRLPRPRPRPSWCPRP | -0.0728 |
| RRIRHRPPRLPRPRPRPTEIPRP | 0.0223 |
| RRIRFRPPRLPRPRPRPWYLPRP | -0.549 |
| RRIRMRPPRLPRPRPRPSYVPRP | -0.331 |

| Sequence | shrunken log2 fold change |
| --- | --- |
| RRIRQRPPRLPRPRPRPQSMPRP | -0.395 |
| RRIRRRPPRLPRPRPRPAPCPRP | 0.884 |
| RRIRYRPPRLPRPRPRPNSDPRP | -0.233 |
| RRIRARPPRLPRPRPRPDKGPRP | 0.168 |
| RRIRQRPPRLPRPRPRPNVTPRP | 0.0508 |
| RRIRRRPPRLPRPRPRPSNTPRP | -0.172 |
| RRIRIRPPRLPRPRPRPLGLPRP | -0.177 |
| RRIRMRPPRLPRPRPRPGVCPRP | 0.535 |
| RRIRTRPPRLPRPRPRPVDEPRP | -0.146 |
| RRIRYRPPRLPRPRPRPWFWPRP | -0.0261 |
| RRIRVRPPRLPRPRPRPRSCPRP | 0.0646 |
| RRIRERPPRLPRPRPRPRVWPRP | 0.387 |
| RRIRNRPPRLPRPRPRPMFAPRP | -0.239 |
| RRIRIRPPRLPRPRPRPQIHPRP | -0.796 |
| RRIRDRPPRLPRPRPRPQLPPRP | 0.186 |
| RRIRKRPPRLPRPRPRPNNYPRP | -0.259 |
| RRIRFRPPRLPRPRPRPCRFPRP | -0.607 |
| RRIRLRPPRLPRPRPRPGQGPRP | -0.0179 |
| RRIRGRPPRLPRPRPRPKVPPRP | 0.447 |
| RRIRFRPPRLPRPRPRPQVFPRP | -0.139 |
| RRIRLRPPRLPRPRPRPKYRPRP | 0.0356 |
